How the values were obtained:
[1] = substrate: NP of B/Brisbane/60/2008(fluB) (influenza B virus B/Brisbane/60/2008); assay: ELISA on virus-infected fixed MDCK cells
[2] = substrate: NP of A/Brisbane/59/2007(H1N1/H1B) (influenza A virus A/Brisbane/59/2007 (H1N1)); assay: sandwich ELISA, capture IgG; NP of lysed virus titrated; HRP-NP16 detection
[3] = substrate: NP of A/Brisbane/59/2007(H1N1/H1B) (influenza A virus A/Brisbane/59/2007 (H1N1)); assay: sandwich ELISA, capture IgG; NP of lysed virus titrated; HRP-NP17 detection
[4] = substrate: NP of A/Brisbane/59/2007(H1N1/H1B) (influenza A virus A/Brisbane/59/2007 (H1N1)); assay: ELISA on virus-infected fixed MDCK cells

Binder | EC50 [1] | EC50 [2] | EC50 [3] | EC50 [4]
NP20 (antibody, V domains shown) VH: EVQLVESGGGLVQPGGSLRLSCAASGFTINGYSIHWVRQAPGKGLEWVASIGPYGGFTYYADSVKGRFTISADTSKNTAYLQMNSLRAEDTAVYYCAGFGFYYWGQGTLVTVSS VL: DIQMTQSPSSLSASVGDRVTITCRASQDVGYGVAWYQQKPGKAPKLLISGASGLYSGVPSRFSGSGSGTDFTLTISSLQPEDFATYYCQQYSSFPLTFGQGTKVEIKR | 4.88 nM |  |  | 
NP5 (antibody, V domains shown) VH: EVQLVESGGGLVQPGGSLRLSCAASGFTISNGSIHWVRQAPGKGLEWVAGIWPSGGSTSYADSVKGRFTISADTINNSAYLQMNSLRAEDTAVYYCARWNYWGQGTLVTVSS VL: DIQMTQSPSSLSASVGDRVTITCRASQDVGWSVAWYQQKPGKAPKLLIYGSRWLYSGVPSRFSGSGSGTDFTLTISSLQPEDFATYYCQQGYNGPLTFGQGTKVEIKR |  | 4.02 nM | 1.82 nM | 
NP15 (antibody, V domains shown) VH: EVQLVESGGGLVQPGGSLRLSCAASGFTISNWYIHWVRQAPGKGLEWVAGIGPYGGSTYYADSVKGRFTISADTSKNTAYLQMNSLRAEDTAVYYCARFHWDHLHGMDYWGQGTLVTVSS VL: DIQMTQSPSSLSASVGDRVTITCRASQDVDNNVAWYQQKPGKAPKLLISYSTGLYSGVPSRFSGSGSGTDFTLTISSLQPEDFATYYCQQYWNYPITFGQGTKVEIKR |  | 4.61 nM | 0.926 nM | 0.668 nM
NP3 (antibody, V domains shown) VH: EVQLVESGGGLVQPGGSLRLSCAASGFTISNYGIHWVRQAPGKGLEWVAGIWPFGGFTSYADSVKGRFTISADTSKNTAYLQMNSLRAEDTAVYYCARFHWNDHGYMDYWGQGTLVTVSS VL: DIQMTQSPSSLSASVGDRVTITCRASQDVGWYVAWYQQKPGKAPKLLIYSTTGLYSGVPSRFSGSGSGTDFTLTISSLQPEDFATYYCQQYYNYPITFGQGTKVEIKR |  | 2.36 nM | 1.04 nM | 0.521 nM
NP21 (antibody, V domains shown) VH: EVQLVESGGGLVQPGGSLRLSCAASGFTINGYGIHWVRQAPGKGLEWVAGIWPYGGSTFYADSVKGRFTISADTSKNTAYLQMNSLRAEDTAVYYCARFYNNHGGIMDYWGQGTLVTVSS VL: DIQMTQSPSSLSASVGDRVTITCRASQDVYFYVAWYQQKPGKAPKLLIYGSRWLYSGVPSRFSGSGSGTDFTLTISSLQPEDFATYYCQQYSNFPVTFGQGTKVEIKR |  | 2.71 nM | 0.81 nM | 4.6 nM
NP25 (antibody, V domains shown) VH: EVQLVESGGGLVQPGGSLRLSCAASGFTIGGGFIHWVRQAPGKGLEWVASIWPYWGFTYYADSVKGRFTISADTSKNTAYLQMNSLRAEDTAVYYCARGSYGYSDYWGQGTLVTVSS VL: DIQMTQSPSSLSASVGDRVTITCRAGQDVSSGVAWYQQKPGKAPKLLISWTSFLYSGVPSRFSGSGSGTDFTLTISSLQPEDFATYYCQQYYDYPITFGQGTKVEIKR | 2.17 nM |  |  | 4.83 nM
NP22 (antibody, V domains shown) VH: EVQLVESGGGLVQPGGSLRLSCAASGFTISDWSIHWVRQAPGKGLEWVAGIWPYWGSTSYADSVKGRFTISADTSKNTAYLQMNSLRAEDTAVYYCARGFYSWFDYWGQGTLVTVSS VL: DIQMTQSPSSLSASVGDRVTITCRASQDVFSWVAWYQQKPGKAPKLLISSASSLYSGVPSRFSGSGSGTDFTLTISSLQPEDFATYYCQQSWDYPITFGQGTKVEIKR | 3.92 nM | 59.4 nM | 102 nM | 7.11 nM
NP7 (antibody, V domains shown) VH: EVQLVESGGGLVQPGGSLRLSCAASGFTISNGGIHWVRQAPGKGLEWVAGIGPYGGFTSYADSVKGRFTISADTSKNTAYLQMNSLRAEDTAVYYCARFYSNYYGYHGVMDYWGQGTLVTVSS VL: DIQMTQSPSSLSASVGDRVTITCRASQDVFGWVAWYQQKPGKAPKLLISYSASLYSGVPSRFSGSGSGTDFTLTISSLQPEDFATYYCQQYFNYPLTFGQGTKVEIKR |  | 4.13 nM | 4.15 nM | 
NP2 (antibody, V domains shown) VH: EVQLVESGGGLVQPGGSLRLSCAASGFTIGGGGIHWVRQAPGKGLEWVAGIWPYWGYTFYADSVKGRFTISADTSKNTAYLQMNSLRAEDTAVYYCARFWHGNLDVMDYWGQGTLVTVSS VL: DIQMTQSPSSLSASVGDRVTITCRASQDVYGYVAWYQQKPGKAPKLLIYGAAGLYSGVPSRFSGSGSGTDFTLTISSLQPEDFATYYCQQYSNFPLTFGQGTKVEIKR | 4.89 nM |  |  | 
NP16 (antibody, V domains shown) VH: EVQLVESGGGLVQPGGSLRLSCAASGFTIGNSGIHWVRQAPGKGLEWVAWIGPYWGFTSYADSVKGRFTISADTSKNTAYLQMNSLRAEDTAVYYCARFGNHWHLFMDYWGQGTLVTVSS VL: DIQMTQSPSSLSASVGDRVTITCRASQDVGSYVAWYQQKPGKAPKLLISWTTGLYSGVPSRFSGSGSGTDFTLTISSLQPEDFATYYCQQYFSYPVTFGQGTKVEIKR |  | 4.74 nM | 0.89 nM | 0.21 nM
NP6 (antibody, V domains shown) VH: EVQLVESGGGLVQPGGSLRLSCAASGFTINDGSIHWVRQAPGKGLEWVAGIGPFGGFTYYADSVKGRFTISADTSKNTAYLQMNSLRAEDTAVYYCARSGYSGSFDYWGQGTLVTVSS VL: DIQMTQSPSSLSASVGDRVTITCRASQDVYFGVAWYQQKPGKAPKLLIYGTSYLYSGVPSRFSGSGSGTDFTLTISSLQPEDFATYYCQQFSNWPITFGQGTKVEIKR |  | 78.3 nM |  | 
NP17 (antibody, V domains shown) VH: EVQLVESGGGLVQPGGSLRLSCAASGFTISGGSIHWVRQAPGKGLEWVASIWPFGGSTFYADSVKGRFTISADTSKNTAYLQMNSLRAEDTAVYYCARFGHGHNVIMDYWGQGTLVTVSS VL: DIQMTQSPSSLSASVGDRVTITCRASQDVGYSVAWYQQKPGKAPKLLISSPGGLYSGVPSRFSGSGSGTDFTLTISSLQPEDFATYYCQQYYDYPVTFGQGTKVEIKR |  | 4.08 nM | 2.22 nM | 
NP18 (antibody, V domains shown) VH: EVQLVESGGGLVQPGGSLRLSCAASGFTISGGGIHWVRQAPGKGLEWVASIWPSWGSTSYADSVKGRFTISADTSKNTAYLQMNSLRAEDTAVYYCARFHNGGFLVMDYWGQGTLVTVSS VL: DIQMTQSSSSLSASVGDRVTITCRASQDVGYYVAWYQQKPGKAPKLLIYGPRFLYSGVPSRFSGSGSGTDFTLTISSLQPEDFATYYCQQYSNWPITFGQGTKVEIKR |  |  | 66.4 nM | 7 nM
NP19 (antibody, V domains shown) VH: EVQLVESGGGLVQPGGSLRLSCAASGFTISSWGIHWVRQAPGKGLEWVAGIGPFWGYTSYADSVKGRFTISADTSKNTAYLQMNSLRAEDTAVYYCARFGVDNYGYMDYWGQGTLVTVSS VL: DIQMTQSPSSLSASVGDRVTITCRASQDVSGWVAWYQQKPGKAPKLLISWSTGLYSGVPSRFSGSGSGTDFTLTISSLQPEDFATYYCQQYFNFPVTFGQGTKVEIKR |  | 3.37 nM | 0.812 nM | 0.295 nM
NP24 (antibody, V domains shown) VH: EVQLVESGGGLVQPGGSLRLSCAASGFTIDDWYIHWVRQAPGKGLEWVAGIGPYGGFTYYADSVKGRFTISADTSKNTAYLQMNSLRAEDTAVYYCARGYYGSFDYWGQGTLVTVSS VL: DIQMTQSPSSLSASVGDRVTITCRASQDVGSSVAWYQQKPGKAPKLLIFYTSSLYSGVPSRFSGSGSGTDFTLTISSLQPEDFATYYCQQGWDSPVTFGQGTKVEIKR | 3.17 nM |  |  | 

From patent US20230212554A1
